Experiment [1] is described as follows: Coupled dehydrogenase assays for transaminase activity of the Pseudomonas sp. proteins and ancestral reconstructions. In kind it is biochemical. As for the experimental part:
Activity for each protein was assessed using coupled dehydrogenase assays as described previously. A typical assay comprised:
Substrate (6.25 mM final concentration in potassium phosphate buffer)
Co-substrate (pyruvate (0.5 mM final concentration) or α-KG (0.25 mM final concentration)
NAD (1.25 mM final concentration)
Dehydrogenase (1 μL from ADH-≧35 units/mL stock solution or GDH≧35 units/mg protein stock)
Transaminase (final concentration dependent)
Potassium phosphate buffer (100 mM)
UV absorbance at 340 nm was recorded at 28° C. over a pH range of 7.5-10 with a range of substrates.
Proteins encoded by p7N6, p7N15, p7N16, p7N17, p7N43 and p7N48 were expressed using an E. coli recombinant expression platform and subsequently purified.
Each of the proteins were assayed for substrate specificity. Substrates identified by assaying for each of the proteins are summarized below.

A short description of experiment [2]: Large-scale (200 mL) p6 reaction analysed by GC-MS. The settings on record: C11 amino acid substrate, after seven days, oil analysed by GC-MS. The format is biochemical. As for the experimental part:
To corroborate the findings of the UV assay, a large-scale (200 mL) p6 reaction was carried out using C11 amino acid substrate. After seven days, the mixed reaction was allowed to settle and yellow oil was observed on the surface of the reaction. This oil was concentrated in vacuo and analysed by GC-MS. […] The diacid is thought to be the oxidation product of the semialdehyde formed by the transaminase, further supporting the findings of the UV assay.

The source of these data is patent US20160208226A1, “Transaminase Biocatalysts” (COMMONWEALTH SCIENTIFIC AND INDUSTRIAL RESEARCH ORGANISATION, priority 2013, published 2016).

B1: p6: pyruvate: ω-amino acid transaminase from a newly isolated Pseudomonas sp., amino acid sequence SEQ ID NO:1 (protein, listed as Pseudomonas sp.)
chain: MGSSHHHHHHSSGLVPRGSHMNQQVNVAPSAAADLNLKAHWMPFSANRNFHKDPRIIVAAEGSWLVDDKGRRIYDSLSGLWTCGAGHSRKEIADAVAKQIGTLDYSPGFQYGHPLSFQLAEKIAQMTPGTLDHVFFTGSGSECADTSIKMARAYWRIKGQAQKTKLIGRARGYHGVNVAGTSLGGIGGNRKMFGPLMDVDHLPHTLQPGMAFTKGAAETGGVELANELLKLIELHDASNIAAVIVEPMSGSAGVIVPPKGYLQRLREICDANDILLIFDEVITAFGRMGKATGAEYFGVTPDIMNVAKQVTNGAVPMGAVIASSEIYDTFMNQNLPEYAVEFGHGYTYSAHPVACAAGIAALDLLQKENLIQQSAELAPHFEKALHGLKGTKNVIDIRNCGLAGAIQIAARDGDAIVRPFEASMKLWKEGFYVRFGGDTLQFGPTFNAKPEDLDRLFDAVGEALNGVA
With B1, the pH optimum in experiment [1] (UV absorbance at 340 nm, 28° C., pH range 7.5-10) is roughly 10. In addition, the smallest substrate accepted result in experiment [1] (coupled dehydrogenase assay) is “C3 (β-alanine)”. In experiment [1] (coupled dehydrogenase assay, 340 nm, 28° C., pH 7.5-10), the “activity with ω-amino acids including long chain C11 and C12” value was “shown the desired activity with ω-amino acids, notably including long chain amino acids C11 and C12”. Further, the “product detected by GC-MS in large-scale reaction” value in experiment [2] is “a peak corresponding to the mass of the C11 diacid was also found in large concentrations”.
